Columns and labels:
Experiment in all cases: holdup assay
Design in all cases: key: below the threshold = too weak to quantify, mostly under pKd 3.1 to 4
Details in all cases: plain residues with an end cap or a label only (N-terminal biotin on a linker: ado-ado)
[1] = target: MAGI2_4, Q86UL8
[2] = target: MAST1, Q9Y2H9
[3] = target: LDB3, O75112
[4] = target: Inadl_6, Q8NI35
[5] = target: FRMPD2_1, Q68DX3
[6] = target: T1, SNTA1, Q13424
T1 sequence (Q13424 82-180, limits assumed, looked up): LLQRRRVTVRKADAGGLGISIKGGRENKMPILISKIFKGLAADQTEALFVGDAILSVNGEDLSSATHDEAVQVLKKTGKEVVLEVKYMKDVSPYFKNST

[7] = target: MAGI2_3, Q86UL8
[8] = target: T2, SIPA1L2, Q9P2F8
T2 sequence (Q9P2F8 945-1036, limits assumed, looked up): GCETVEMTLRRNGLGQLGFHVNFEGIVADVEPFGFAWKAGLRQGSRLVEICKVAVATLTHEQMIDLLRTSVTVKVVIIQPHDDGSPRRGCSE

[9] = target: DLG2_2, Q15700
[10] = target: NHERF4_2, Q86UT5
[11] = target: T3, PDZD2_2, O15018
T3 sequence (O15018 329-429, limits assumed, looked up): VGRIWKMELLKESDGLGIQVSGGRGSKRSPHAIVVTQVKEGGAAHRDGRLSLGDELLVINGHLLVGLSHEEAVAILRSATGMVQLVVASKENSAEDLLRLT

[12] = target: Inadl_5, Q8NI35
[13] = target: GRIP2_4, Q9C0E4
[14] = target: T4, NHERF3_3, Q5T2W1
T4 sequence (Q5T2W1 238-333, limits assumed, looked up): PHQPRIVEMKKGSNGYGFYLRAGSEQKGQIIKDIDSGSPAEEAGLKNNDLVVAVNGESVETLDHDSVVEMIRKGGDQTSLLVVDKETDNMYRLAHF

[15] = target: T5, NHERF3_4, Q5T2W1
T5 sequence (Q5T2W1 373-468, limits assumed, looked up): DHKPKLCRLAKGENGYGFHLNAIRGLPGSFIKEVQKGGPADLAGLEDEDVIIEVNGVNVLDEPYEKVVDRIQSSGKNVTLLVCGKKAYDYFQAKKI

[16] = target: PTPN3, P26045
[17] = target: T6, HTRA4, P83105
T6 sequence (P83105 378-476, limits assumed, looked up): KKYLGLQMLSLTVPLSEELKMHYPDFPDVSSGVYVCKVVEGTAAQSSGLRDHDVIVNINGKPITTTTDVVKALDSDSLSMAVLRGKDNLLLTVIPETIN

[18] = target: T7, GRIP1_2, Q9Y3R0
T7 sequence (Q9Y3R0 145-248, limits assumed, looked up): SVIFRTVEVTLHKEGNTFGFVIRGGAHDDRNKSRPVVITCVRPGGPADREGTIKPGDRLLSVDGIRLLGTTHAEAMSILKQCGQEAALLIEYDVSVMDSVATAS

[19] = target: T8, SNTG1, Q9NSN8
T8 sequence (Q9NSN8 52-150, limits assumed, looked up): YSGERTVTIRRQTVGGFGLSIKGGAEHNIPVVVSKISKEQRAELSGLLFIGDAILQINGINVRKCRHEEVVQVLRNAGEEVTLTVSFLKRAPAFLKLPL

[20] = target: MAGI2_5, Q86UL8
[21] = target: GRIP2_3, Q9C0E4
[22] = target: SCRIB_2, Q14160
[23] = target: GOPC, Q9HD26
[24] = target: T9, TJP3_3, O95049
T9 sequence (O95049 375-456, limits assumed, looked up): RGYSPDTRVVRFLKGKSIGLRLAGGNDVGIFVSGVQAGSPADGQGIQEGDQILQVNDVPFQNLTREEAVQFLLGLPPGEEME

[25] = target: T10, CARD11, Q9BXL7
T10 sequence (Q9BXL7 662-765, limits assumed, looked up): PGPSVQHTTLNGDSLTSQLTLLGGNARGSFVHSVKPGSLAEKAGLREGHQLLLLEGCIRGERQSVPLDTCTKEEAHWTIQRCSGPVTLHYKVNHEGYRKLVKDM

[26] = target: PICK1, Q9NRD5
[27] = target: LNX1_3, Q8TBB1
[28] = target: HTRA1, Q92743
[29] = target: CASK, O14936
Sequence of CASK, O14936 (O14936 487-570): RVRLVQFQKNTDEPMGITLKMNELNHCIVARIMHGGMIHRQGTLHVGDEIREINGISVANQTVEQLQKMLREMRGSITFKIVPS

Sequence of Inadl_5, Q8NI35 (Q8NI35 673-780): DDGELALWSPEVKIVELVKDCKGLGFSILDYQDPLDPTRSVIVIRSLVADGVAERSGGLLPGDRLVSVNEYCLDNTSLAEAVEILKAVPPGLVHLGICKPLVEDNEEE
Sequence of NHERF4_2, Q86UT5 (Q86UT5 220-308): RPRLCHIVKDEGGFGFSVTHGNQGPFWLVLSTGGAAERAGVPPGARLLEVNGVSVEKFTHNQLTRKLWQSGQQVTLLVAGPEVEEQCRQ
Sequence of DLG2_2, Q15700 (Q15700 189-283): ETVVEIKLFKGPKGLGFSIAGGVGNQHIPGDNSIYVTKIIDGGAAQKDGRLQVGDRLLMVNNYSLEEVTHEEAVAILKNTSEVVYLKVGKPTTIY
Sequence of MAGI2_4, Q86UL8 (Q86UL8 772-865): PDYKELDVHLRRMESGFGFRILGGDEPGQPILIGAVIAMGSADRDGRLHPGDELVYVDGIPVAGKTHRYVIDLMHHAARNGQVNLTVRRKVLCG
Sequence of PTPN3, P26045 (P26045 505-587): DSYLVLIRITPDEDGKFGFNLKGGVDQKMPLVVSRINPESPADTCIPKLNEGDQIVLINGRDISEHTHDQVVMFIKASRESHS
Sequence of GRIP2_4, Q9C0E4 (Q9C0E4 446-548): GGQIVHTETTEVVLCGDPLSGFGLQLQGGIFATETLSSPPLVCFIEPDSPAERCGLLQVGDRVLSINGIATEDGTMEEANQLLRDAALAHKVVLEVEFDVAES
Sequence of LNX1_3, Q8TBB1 (Q8TBB1 500-596): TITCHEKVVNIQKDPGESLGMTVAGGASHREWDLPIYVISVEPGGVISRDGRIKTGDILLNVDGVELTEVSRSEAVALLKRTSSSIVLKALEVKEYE
Sequence of LDB3, O75112 (O75112 1-94): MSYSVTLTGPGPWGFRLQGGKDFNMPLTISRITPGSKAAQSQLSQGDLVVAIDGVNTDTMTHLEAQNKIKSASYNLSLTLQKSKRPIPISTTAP
Sequence of MAST1, Q9Y2H9 (Q9Y2H9 962-1065): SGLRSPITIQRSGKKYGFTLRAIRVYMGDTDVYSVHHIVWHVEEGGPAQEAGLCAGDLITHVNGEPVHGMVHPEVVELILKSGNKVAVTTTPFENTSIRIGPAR
Sequence of PICK1, Q9NRD5 (Q9NRD5 17-115): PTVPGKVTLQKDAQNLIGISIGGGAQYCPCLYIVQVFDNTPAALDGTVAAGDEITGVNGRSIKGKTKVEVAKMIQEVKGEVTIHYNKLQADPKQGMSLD
Sequence of SCRIB_2, Q14160 (Q14160 857-960): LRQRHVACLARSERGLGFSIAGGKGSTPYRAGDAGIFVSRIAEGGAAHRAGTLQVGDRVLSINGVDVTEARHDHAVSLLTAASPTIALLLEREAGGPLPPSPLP
Sequence of HTRA1, Q92743 (Q92743 360-477): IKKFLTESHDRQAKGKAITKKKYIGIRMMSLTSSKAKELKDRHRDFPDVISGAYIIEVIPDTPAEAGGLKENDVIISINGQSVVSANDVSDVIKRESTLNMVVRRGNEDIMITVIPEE
Sequence of MAGI2_3, Q86UL8 (Q86UL8 600-682): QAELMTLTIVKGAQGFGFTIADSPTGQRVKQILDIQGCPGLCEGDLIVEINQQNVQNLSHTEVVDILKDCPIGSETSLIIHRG
Sequence of Inadl_6, Q8NI35 (Q8NI35 1058-1167): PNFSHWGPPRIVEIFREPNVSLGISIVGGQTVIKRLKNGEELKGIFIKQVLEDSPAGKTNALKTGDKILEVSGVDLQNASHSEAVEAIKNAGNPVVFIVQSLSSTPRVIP
Sequence of MAGI2_5, Q86UL8 (Q86UL8 915-1017): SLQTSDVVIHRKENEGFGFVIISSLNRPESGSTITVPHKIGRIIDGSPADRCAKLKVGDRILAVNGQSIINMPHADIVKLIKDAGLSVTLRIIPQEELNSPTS
Sequence of GRIP2_3, Q9C0E4 (Q9C0E4 238-339): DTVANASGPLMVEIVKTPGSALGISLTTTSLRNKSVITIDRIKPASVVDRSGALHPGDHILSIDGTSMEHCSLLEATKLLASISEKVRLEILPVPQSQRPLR
Sequence of FRMPD2_1, Q68DX3 (Q68DX3 770-861): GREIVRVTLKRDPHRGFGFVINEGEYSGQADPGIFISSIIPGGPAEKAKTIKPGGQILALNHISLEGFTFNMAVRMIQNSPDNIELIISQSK

B1: CRHR1, P34998 (peptide)
chain: FHSIKQSTAV
[1]
  pKd: 4.42
[2]
  pKd: 4.74
[3]
  pKd: below the threshold
[4]
  pKd: below the threshold
[5]
  pKd: 3.93
[6]
  pKd: 3.71
[7]
  pKd: 3.61
[8]
  pKd: below the threshold
[9]
  pKd: 4.66
[10]
  pKd: below the threshold
[11]
  pKd: 4.48
[12]
  pKd: below the threshold
[13]
  pKd: below the threshold
[14]
  pKd: below the threshold
[15]
  pKd: 4.27
[16]
  pKd: 4.6
[17]
  pKd: below the threshold
[18]
  pKd: below the threshold
[19]
  pKd: 3.64
[20]
  pKd: 4.38
[21]
  pKd: below the threshold
[22]
  pKd: 4.18
[23]
  pKd: 4
[24]
  pKd: below the threshold
[25]
  pKd: below the threshold
[26]
  pKd: below the threshold
[27]
  pKd: below the threshold
[28]
  pKd: below the threshold
[29]
  pKd: below the threshold
